Data: patent US11370837 (dated 2022)
Substitutions are numbered along the chain they refer to.

T1: human TIGIT on CHO cells (human, UniProt Q495A1)
T1 chain: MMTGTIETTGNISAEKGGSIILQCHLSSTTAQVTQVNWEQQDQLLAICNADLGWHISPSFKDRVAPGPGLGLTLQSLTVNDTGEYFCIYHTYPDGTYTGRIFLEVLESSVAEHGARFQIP

T2: human TIGIT-his (human, UniProt Q495A1)
T2 chain: T1 chain

T3: mouse TIGIT-his (mouse, UniProt P86176)
T3 chain: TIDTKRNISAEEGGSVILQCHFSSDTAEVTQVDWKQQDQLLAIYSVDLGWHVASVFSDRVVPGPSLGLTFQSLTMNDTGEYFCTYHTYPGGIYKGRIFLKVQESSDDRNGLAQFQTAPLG

B1: ADI-30336 (antibody, V domains shown)
VH: QLQLQESGPGLVKPSETLSLTCTVSGGSISSSRYYWGWIRQPPGKGLEWIGSIYYSGSTYYNPSLKSRVTISVDTSKNQFSLKLSSVTAADTAVYYCARDGLYHTPEYFQHWGQGTLVTVSS
VL: EIVLTQSPATLSLSPGERATLSCRASQSVSSYLAWYQQKPGQAPRLLIYDASNRATGIPARFSGSGSGTDFTLTISSLEPEDFAVYYCQQRFAHPYTFGGGTKVEIK
B2: ADI-30278 (antibody, V domains shown)
VH: QVQLVQSGAEVKKPGASVKVSCKASGYTFTEYYMHWVRQAPGQGLEWMGIISPSAGSTKYAQKFQGRVTMTRDTSTSTVYMELSSLRSEDTAVYYCARDHDIRLAGRLADYWGQGTLVTVSS
VL: DIQMTQSPSSVSASVGDRVTITCRASQGISSWLAWYQQKPGKAPKLLISAASSLQSGVPSRFSGSGSGTDFTLTISSLQPEDFATYYCQQAVILPITFGGGTKVEIK
B3: ADI-30272 (antibody, V domains shown)
VH: B2 VH with K59S, R103A, L104A
VL: B2 VL

Assays:
human TIGIT on CHO cells [1] = molecular target: T1, human TIGIT on CHO cells; assay: competition, CD155 blocking FACS
human TIGIT on CHO cells [2] = molecular target: T1, human TIGIT on CHO cells; assay: FACS
human TIGIT on CHO cells [3] = molecular target: T1, human TIGIT on CHO cells; assay: FACS, CHO-expressed antibody
monkey TIGIT-his = monkey TIGIT-his (monkey); assay: BLI
human TIGIT on CHO cells [4] = molecular target: T1, human TIGIT on CHO cells; assay: competition, CD155 blocking FACS
human TIGIT-his = molecular target: T2, human TIGIT-his; assay: BLI
mouse TIGIT-his = molecular target: T3, mouse TIGIT-his; assay: BLI
human TIGIT on CHO cells [5] = molecular target: T1, human TIGIT on CHO cells; assay: competition

Sequence of monkey TIGIT-his (monkey) (Q495A1 other isoform, or with tags, fused parts or gaps): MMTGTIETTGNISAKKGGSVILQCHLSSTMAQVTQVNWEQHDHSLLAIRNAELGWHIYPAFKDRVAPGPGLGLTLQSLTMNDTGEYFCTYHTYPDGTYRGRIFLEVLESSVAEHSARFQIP

| Binder | IC50 (human TIGIT on CHO cells [1]) | EC50 (human TIGIT on CHO cells [2]) | EC50 (human TIGIT on CHO cells [3]) | Kd (monkey TIGIT-his) | IC50 (human TIGIT on CHO cells [4]) | Kd (human TIGIT-his) | binding result (mouse TIGIT-his) | IC50 (human TIGIT on CHO cells [5]) |
| --- | --- | --- | --- | --- | --- | --- | --- | --- |
| B1 | 0.409 nM | 0.629 nM | 0.13 nM | 0.556 nM | 0.122 nM | 1.46 nM | no binding | – |
| B2 | 0.217 nM | 0.409 nM | 0.132 nM | 4.53 nM | 0.116 nM | 1.75 nM | no binding | – |
| B3 | – | 0.61 nM | – | – | – | – | – | 0.404 nM |
